Changes are numbered by the printed parent chain. Like-named read-outs stand apart in the source and are kept apart here.

In general, Kd refers to the free concentration of one partner at which half of the binding sites on the other are occupied at equilibrium, for simple one-to-one binding. A word on the stoichiometry N: it is a count of units in the complex or per binding partner.

Assay [1] concerns the target T1, S. cerevisiae Rpn14 (recombinant) (S. cerevisiae, UniProt P53196 1-417). Nature of the assay: NMR titration.
Assay [2] deals with T1, S. cerevisiae Rpn14 (recombinant). Nature of the assay: AUC.
For assay [3] the target is unchanged. Nature of the assay: AUC. The source holds these as a separate data set.

T1 sequence (P53196 whole entry): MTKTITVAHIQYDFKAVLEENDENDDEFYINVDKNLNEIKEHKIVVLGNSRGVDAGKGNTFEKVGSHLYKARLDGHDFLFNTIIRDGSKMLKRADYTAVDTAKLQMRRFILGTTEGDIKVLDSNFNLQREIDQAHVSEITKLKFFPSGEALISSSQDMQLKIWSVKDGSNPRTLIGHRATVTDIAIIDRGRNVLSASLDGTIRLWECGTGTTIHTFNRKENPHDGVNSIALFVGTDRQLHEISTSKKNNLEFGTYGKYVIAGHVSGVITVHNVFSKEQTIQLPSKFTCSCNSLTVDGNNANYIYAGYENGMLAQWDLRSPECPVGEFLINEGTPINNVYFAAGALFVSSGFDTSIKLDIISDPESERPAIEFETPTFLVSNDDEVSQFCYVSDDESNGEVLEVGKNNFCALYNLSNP

B1: Rpt6-C (P318-N393) (domain or fragment, S. cerevisiae, UniProt Q01939 318-393, looked up)
chain: PPSVAARAEILRIHSRKMNLTRGINLRKVAEKMNGCSGADVKGVCTEAGMYALRERRIHVTQEDFELAVGKVMNKN
Regarding B1, the binding result in assay [1] is “binds”.

B2: S. cerevisiae Rpt6 C-terminal domain (Rpt6-C), P318-K405 (domain or fragment, UniProt Q01939 318-405, looked up)
chain: PPSVAARAEILRIHSRKMNLTRGINLRKVAEKMNGCSGADVKGVCTEAGMYALRERRIHVTQEDFELAVGKVMNKNQETAISVAKLFK
With B2, in assay [2], the Kd is 0.25 nM and the “stoichiometry N” value was 1.

B3: Rpt6-C G^360,387A (domain or fragment, S. cerevisiae, UniProt Q01939 318-405, looked up)
chain: B2 chain with G43A, G70A
For the molecule B3, the Kd in assay [3] was found to be 0.01 nM.

Values taken from PMC3670613 (Structure (London, England : 1993), 2013).
